Reference: US20100222408A1 (Johns Hopkins, published 2010)

What was measured:
[1] = target: T1, p97/valosin-containing protein (human, UniProt P55072 2-806); assay: co-immunoprecipitation from bronchial brushings of ΔF508 CF subjects (IP gp78, immunoblot VCP)
T1 construct: Endogenous protein detected by immunoblot in immunoprecipitates; also called VCP; VCP/p97
Description: (§1) Cells were lysed directly on plates using M-PER (Pierce Biotech. Inc., Rockford, Ill.) protein lysis buffer containing protease inhibitor cocktail (Roche) after three washes with ice cold PBS. CF bronchial brushings were transferred to lysis buffer. For immunoprecipitation, 500 μg/ml (cell culture)/50 μg/ml (bronchial brushings) total protein extracts were incubated with 50 μl of protein A/G agarose beads (Santa Cruz Biotechnology Inc., Santa Cruz, Calif.) for 3 hours at 4° C. After preclearing, 5 μg of respective primary antibody or pre-immune sera (negative control) was added to each tube. After 1 hour, protein A/G agarose beads (50 μL) were added to each tube and tubes were incubated overnight at 4° C. Beads were washed once with lysis buffer (20 mM Tris-HC1 [pH 7.6], 150 mM NaCl, 0.5% Triton X-100 and 10 μM phenylmethylsulfonyl fluoride [PMSF]) followed with two washes with phosphate buffer saline (PBS). The beads were suspended in Laemmli's sample buffer (30 μL) containing β-mercaptoethanol, vortexed for 1 minute, resolved by 4-10% SDS-PAGE and transferred to a 0.4-μm pore size nitrocellulose membrane.

Hsc70 = Hsc70 (human, UniProt P11142 2-646); assay: co-immunoprecipitation from bronchial brushings of ΔF508 CF subjects (IP gp78, immunoblot Hsc70)
Description: as §1

T1 sequence (P55072 2-806 limits assumed): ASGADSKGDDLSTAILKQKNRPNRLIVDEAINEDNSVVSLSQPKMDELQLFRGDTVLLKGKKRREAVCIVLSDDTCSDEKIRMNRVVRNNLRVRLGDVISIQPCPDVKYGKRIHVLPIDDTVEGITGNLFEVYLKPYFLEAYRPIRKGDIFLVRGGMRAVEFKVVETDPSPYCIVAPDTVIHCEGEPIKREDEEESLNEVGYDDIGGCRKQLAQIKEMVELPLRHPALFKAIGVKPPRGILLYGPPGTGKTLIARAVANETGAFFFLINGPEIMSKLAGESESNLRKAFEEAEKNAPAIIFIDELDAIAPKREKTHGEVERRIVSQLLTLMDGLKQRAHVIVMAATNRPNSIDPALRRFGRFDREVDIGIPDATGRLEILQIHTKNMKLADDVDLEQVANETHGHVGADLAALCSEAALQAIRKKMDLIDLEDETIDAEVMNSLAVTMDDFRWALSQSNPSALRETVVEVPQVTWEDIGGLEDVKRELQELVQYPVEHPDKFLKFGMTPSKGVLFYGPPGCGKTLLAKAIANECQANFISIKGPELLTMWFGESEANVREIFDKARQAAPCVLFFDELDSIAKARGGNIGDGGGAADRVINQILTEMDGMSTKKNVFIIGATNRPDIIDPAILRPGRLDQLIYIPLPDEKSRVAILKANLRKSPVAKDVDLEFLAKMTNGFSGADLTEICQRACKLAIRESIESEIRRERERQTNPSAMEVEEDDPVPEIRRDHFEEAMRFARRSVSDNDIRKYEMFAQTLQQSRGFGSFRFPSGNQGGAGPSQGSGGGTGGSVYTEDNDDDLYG
Hsc70, sequence (P11142 2-646 limits assumed): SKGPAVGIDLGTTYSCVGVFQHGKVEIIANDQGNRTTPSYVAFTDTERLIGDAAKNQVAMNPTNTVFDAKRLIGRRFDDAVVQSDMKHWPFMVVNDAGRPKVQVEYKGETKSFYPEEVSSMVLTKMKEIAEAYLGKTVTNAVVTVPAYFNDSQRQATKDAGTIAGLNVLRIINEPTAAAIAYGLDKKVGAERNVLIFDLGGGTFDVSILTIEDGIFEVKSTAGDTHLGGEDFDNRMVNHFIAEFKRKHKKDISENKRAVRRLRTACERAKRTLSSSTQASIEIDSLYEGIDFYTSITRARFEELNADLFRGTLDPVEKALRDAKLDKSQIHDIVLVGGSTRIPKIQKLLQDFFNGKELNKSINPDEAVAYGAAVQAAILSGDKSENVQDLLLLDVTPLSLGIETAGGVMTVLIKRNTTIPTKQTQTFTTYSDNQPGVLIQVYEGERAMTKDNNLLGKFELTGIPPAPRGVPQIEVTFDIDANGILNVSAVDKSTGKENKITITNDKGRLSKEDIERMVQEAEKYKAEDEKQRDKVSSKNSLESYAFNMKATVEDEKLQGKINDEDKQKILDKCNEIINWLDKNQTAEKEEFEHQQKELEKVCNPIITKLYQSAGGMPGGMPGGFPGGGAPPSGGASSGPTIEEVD

B1: gp78 (enzyme, human, UniProt Q9UKV5 1-643, looked up)
chain: MPLLFLERFPWPSLRTYTGLSGLALLGTIISAYRALSQPEAGPGEPDQLTASLQPEPPAPARPSAGGPRARDVAQYLLSDSLFVWVLVNTACCVLMLVAKLIQCIVFGPLRVSERQHLKDKFWNFIFYKFIFIFGVLNVQTVEEVVMWCLWFAGLVFLHLMVQLCKDRFEYLSFSPTTPMSSHGRVLSLLVAMLLSCCGLAAVCSITGYTHGMHTLAFMAAESLLVTVRTAHVILRYVIHLWDLNHEGTWEGKGTYVYYTDFVMELTLLSLDLMHHIHMLLFGNIWLSMASLVIFMQLRYLFHEVQRRIRRHKNYLRVVGNMEARFAVATPEELAVNNDDCAICWDSMQAARKLPCGHLFHNSCLRSWLEQDTSCPTCRMSLNIADNNRVREEHQGENLDENLVPVAAAEGRPRLNQHNHFFHFDGSRIASWLPSFSVEVMHTTNILGITQASNSQLNAMAHQIQEMFPQVPYHLVLQDLQLTRSVEITTDNILEGRIQVPFPTQRSDSIRPALNSPVERPSSDQEEGETSAQTERVPLDLSPRLEETLDFGEVEVEPSEVEDFEARGSRFSKSADERQRMLVQRKDELLQQARKRFLNKSSEDDAASESFLPSEGASSDPVTLRRRMLAAAAERRLQKQQTS
notes: also called AMFR; AMFR/gp78
binding result [1]: no binding
binding result (Hsc70): no binding
